B1: LCN2_apta34 (ssDNA)
DNA: ATACCAGCTTATTCAATTCGGAGCGGTAGTTTGAGGAGGAAACAACCCGGCCTTGGAGAGATAGTAAGTGCAATCT
B2: LCN2_apta33 (ssDNA)
DNA: ATACCAGCTTATTCAATTCACGACGATAGTGCAGTGGATACATTCGGCCCTTACCATGAGATAGTAAGTGCAATCT
B3: LCN2_apta20 (ssDNA)
DNA: ATACCAGCTTATTCAATTCCACAAACGGTACTGGACAGTTCTTATATGCTTACATTTGAGATAGTAAGTGCAATCT
B4: LCN2_apta19 (ssDNA)
DNA: ATACCAGCTTATTCAATTCGACAAAGGAGCTACGTCTACATAGCGTGGTGAGTGCTTGAGATAGTAAGTGCAATCT
B5: LCN2_apta2 (ssDNA)
DNA: ATACCAGCTTATTCAATTCCACAGTAGGTGAGGTTCACTGAGTTATCCATTGTTGGCAAGATAGTAAGTGCAATCT
B6: LCN2_apta30 (ssDNA)
DNA: ATACCAGCTTATTCAATTGCACGGGTAAGAAAACGGGGAACTTGAAAGTAGTGCTGTGAGATAGTAAGTGCAATCT
B7: LCN2_apta6 (ssDNA)
DNA: ATACCAGCTTATTCAATTGCACGGTACGCTCTTGAGTGATCCACAATTTCTAACCGCGAGATAGTAAGTGCAATCT
B8: LCN2_apta11 (ssDNA)
DNA: ATACCAGCTTATTCAATTGCGATCGACGCCTGGAGAAGTTCCAGCATTAGCGTAAGTGAGATAGTAAGTGCAATCT
B9: LCN2_apta24 (ssDNA)
DNA: ATACCAGCTTATTCAATTGGGGAACTGAATTATCAGAGATTTTATTCACCTCGTTGGGAGATAGTAAGTGCAATCT
B10: LCN2_apta29 (ssDNA)
DNA: ATACCAGCTTATTCAATTCCGTGACAAGTTGCAGGGGCTGTGCGGTTCTTTTTTTTTGAGATAGTAAGTGCAATCT
B11: LCN2_apta27 (ssDNA)
DNA: ATACCAGCTTATTCAATTGCGATAATCTTGGTTTTCTTTTCAGTTTCTTTAGGGCGGGAGATAGTAAGTGCAATCT
B12: LCN2_apta7 (ssDNA)
DNA: ATACCAGCTTATTCAATTCCGCGTCACCTCACTGCTCCCACTGCGTTGCGTCTCTAAGATAGTAAGTGCAATCT
B13: LCN2_apta13 (ssDNA)
DNA: ATACCAGCTTATTCAATTCGCGGCCTAACTTTGGAAGTTCCTCAGAATACTCAGTTGAGATAGTAAGTGCAATCT
B14: LCN2_apta32 (ssDNA)
DNA: ATACCAGCTTATTCAATTCGAGTCATTGTTTTGCAAAGGATTATGCGTTGTAACGGAGAGATAGTAAGTGCAATCT
B15: LCN2_apta4 (ssDNA)
DNA: ATACCAGCTTATTCAATTCGGAGGGCGGAAGCAAAGCGTAACAGAAAGCCAACACGCGAGATAGTAAGTGCAATCT
B16: LCN2_apta22 (ssDNA)
DNA: ATACCAGCTTATTCAATTCCAACGAGGATGCCAAAGAAAGGTGAGGTGGTCCTAAGGGAGATAGTAAGTGCAATCT
B17: LCN2_apta17 (ssDNA)
DNA: ATACCAGCTTATTCAATTCACGTGCGACAGGGGGATCTGGCTTTATCCCAGCGTGTTAAGATAGTAAGTGCAATCT
B18: LCN2_apta16 (ssDNA)
DNA: ATACCAGCTTATTCAATTCCGCGTCACCTCACTGCTCCCACCTGCGTTGCGTCTCTAAGATAGTAAGTGCAATCT
B19: LCN2_apta21 (ssDNA)
DNA: ATACCAGCTTATTCAATTCCGGATTTTCGCACGGCTAGCGGGGAACCACTGTCTGGGAGATAGTAAGTGCAATCT
B20: LCN2_apta1 (ssDNA)
DNA: ATACCAGCTTATTCAATTGCCACGACTTGGGGAATCCTAAGGGCTGTGAACGCCGTGGAGATAGTAAGTGCAATCT
B21: LCN2_apta25 (ssDNA)
DNA: ATACCAGCTTATTCAATTGCCACTCGACATGCTTGCCTGTACACTAAAACACTATTCAGATAGTAAGTGCAATCT
B22: LCN2_apta8 (ssDNA)
DNA: ATACCAGCTTATTCAATTCGACAATAGATCAGAACGCTCGAGTTCGCGAGGTGGGGGAGATAGTAAGTGCAATCT
B23: LCN2_apta26 (ssDNA)
DNA: ATACCAGCTTATTCAATTCCAACACCTTGGGTATCCTGTTATATTCACTTGTTGAGTAAGATAGTAAGTGCAATCT
B24: LCN2_apta23 (ssDNA)
DNA: ATACCAGCTTATTCAATTCGTATCAGAATCGCGTGTCACCTTATCTGCCGTATGGGTGAGATAGTAAGTGCAATCT
B25: LCN2_apta3 (ssDNA)
DNA: ATACCAGCTTATTCAATTCCCAAGGGCGAGCTGGCGGCTTGTTGCATAAATTCGTGGAGATAGTAAGTGCAATCT
B26: LCN2_apta10 (ssDNA)
DNA: ATACCAGCTTATTCAATTGGCAGTAGGGCGGGGGGGAGCATGGAGCACATTCTTGTCGAGATAGTAAGTGCAATCT
B27: LCN2_apta15 (ssDNA)
DNA: ATACCAGCTTATTCAATTCCACACCAGTCCTTGTTCGTAGATCACGGTTTCTTCAGGAAGATAGTAAGTGCAATCT
B28: LCN2_apta5 (ssDNA)
DNA: ATACCAGCTTATTCAATTCCCAGCAATCCATTACTTCGTTAGTTCTAATTACCAACCAGATAGTAAGTGCAATCT
B29: LCN2_apta12 (ssDNA)
DNA: ATACCAGCTTATTCAATTCAGGGAAAGGTTACGCGACACATTAGTTTTGAGTCCGTTCAGATAGTAAGTGCAATCT
B30: LCN2_apta31 (ssDNA)
DNA: ATACCAGCTTATTCAATTCCCGATCAGAACATCGGCTCTTATACCCGTTTTGGTCACGAGATAGTAAGTGCAATCT
B31: LCN2_apta18 (ssDNA)
DNA: ATACCAGCTTATTCAATTCCAGCAAGTAAAGGTTATTTACTAGTTAGGGGCTTCTTGAGATAGTAAGTGCAATCT

What follows are binders tested against Lipocalin-2 (LCN2, NGAL) (human, UniProt P80188 21-198) (assay: SPR (BIAcore 3000, CM5 chip); SPR BIAcore 3000, 24 C, LCN2 amine-coupled to CM5 chip; running buffer for the Kd assay not stated (HBS-EP used for SA-chip activation)). Conditions: protein: recombinant; tags: C-terminal polyhistidine.
Chain of Lipocalin-2 (LCN2, NGAL) (P80188 21-198): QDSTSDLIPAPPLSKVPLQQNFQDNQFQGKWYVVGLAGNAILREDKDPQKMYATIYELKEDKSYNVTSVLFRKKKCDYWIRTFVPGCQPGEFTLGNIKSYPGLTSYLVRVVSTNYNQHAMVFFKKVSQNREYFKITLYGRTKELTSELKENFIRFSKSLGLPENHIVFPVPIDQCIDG

In order of rising Kd:
1. B20  0.000647 nM
2. B5  0.00224 nM
3. B25  0.00719 nM
4. B15  0.0609 nM
5. B28  0.0816 nM
6. B7  0.801 nM
7. B12  1.1 nM
8. B22  3.42 nM
9. B3  10.9 nM
10. B11  13.9 nM
11. B4  66.6 nM
12. B29  84.5 nM
13. B6  86.4 nM
14. B26  99.9 nM
15. B23  118 nM
16. B24  158 nM
17. B18  220 nM
18. B10  565 nM
19. B19  872 nM
20. B30  1780 nM
21. B1  2870 nM
22. B31  3380 nM
23. B16  8440 nM

B2: no binding.
B8: no binding.
B9: no binding.
B13: no binding.
B14: no binding.
B17: no binding.
B21: no binding.
B27: no binding.

From paper PMC4454046, “Aptamer-based Sandwich Assay and its Clinical Outlooks for Detecting Lipocalin-2 in Hepatocellular Carcinoma (HCC)”
